Measured values taken from the supplement of paper PMC10598134.
± gives the standard deviation.

Test: collision cross section of modified peptide (TIMS, N2, iRT-aligned); higher = larger / more extended gas-phase ion
Summary of the method: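 Collision cross section was derived from the Mason-Schamp equation. Each value averages 1–3 technical replicates of the most abundant feature per charge state, measured on a timsTOF Pro/HT in dda-PASEF mode (nitrogen, ~2.4 mbar) after a 120-min nanoflow C18 gradient at 60 °C. Synthetic peptide pools (~100 fmol/µL in 2% acetonitrile/0.1% formic acid, iRT standard spiked 1:40) were identified with MaxQuant, and 1/K0 was calibrated with three reference ions and aligned run-wise to the median iRT peptide deviation.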

[1] = charge state: 2, modification: Malonyl
[2] = charge state: 2, modification: Dimethyl (K)
[3] = charge state: 3, modification: Dimethyl (K)
[4] = charge state: 2, modification: Crotonyl
[5] = charge state: 3, modification: Crotonyl
[6] = charge state: 2, modification: Succinyl
[7] = charge state: 3, modification: Succinyl
[8] = charge state: 2, modification: Phospho (Y)
[9] = charge state: 2, modification: Methyl (K)
[10] = charge state: 3, modification: Methyl (K)
[11] = charge state: 2, modification: Trimethyl (K)
[12] = charge state: 3, modification: Trimethyl (K)
[13] = charge state: 2, modification: GlyGly (K)
[14] = charge state: 3, modification: GlyGly (K)
[15] = charge state: 2, modification: Nitro (Y)

KYEEIDNAPEER [_K(Propionyl)YEEIDNAPEER_]
collision cross section (charge state: 2, modification: Propionyl): 411.41 ± 0.64 Å²
collision cross section (charge state: 3, modification: Propionyl): 491.8 Å²

TFGKAAGPSLSHTSGGTQSK [_TFGK(Butyryl)AAGPSLSHTSGGTQSK_]
collision cross section (charge state: 2, modification: Butyryl): 496.92 ± 1.5 Å²
collision cross section (charge state: 3, modification: Butyryl): 514.77 ± 3.5 Å²

SLKLNTAEDAK [_SLK(Malonyl)LNTAEDAK_]
collision cross section [1]: 374.06 ± 0.0012 Å²

ISSNFSSIIAEKLR [_ISSNFSSIIAEK(Dimethyl (K))LR_]
collision cross section [2]: 442.58 ± 1.2 Å²
collision cross section [3]: 495.15 ± 0.74 Å²

SPDEAYAIAKK [_SPDEAYAIAK(Crotonyl)K_]
collision cross section [4]: 376.34 ± 0.8 Å²
collision cross section [5]: 442.81 ± 1.6 Å²

SDSGKPYYYNSQTK [_SDSGK(Succinyl)PYYYNSQTK_]
collision cross section [6]: 423.37 ± 1.1 Å²

VSPASSVDSNIPSSQGYKK [_VSPASSVDSNIPSSQGYK(Succinyl)K_]
collision cross section [6]: 467.79 ± 1.1 Å²
collision cross section [7]: 548.84 ± 1.1 Å²

IISSIEQKEENK [_IISSIEQK(Malonyl)EENK_]
collision cross section [1]: 405.63 ± 0.59 Å²

YEITEQR [_Y(Phospho (Y))EITEQR_]
collision cross section [8]: 328.08 ± 0.068 Å²

DTPTSAGPNSFNKGK [_DTPTSAGPNSFNK(Crotonyl)GK_]
collision cross section [4]: 412.68 ± 0.55 Å²
collision cross section [5]: 462.19 Å²

SPDEAYAIAKK [_SPDEAYAIAK(Dimethyl (K))K_]
collision cross section [2]: 376.23 ± 0.37 Å²
collision cross section [3]: 437.31 ± 0.63 Å²

SGNLTEDDKHNNAK [_SGNLTEDDK(Dimethyl (K))HNNAK_]
collision cross section [3]: 479.84 ± 1.3 Å²

YTAQVDAEEK [_Y(Phospho (Y))TAQVDAEEK_]
collision cross section [8]: 361.18 ± 0.78 Å²

GSLEKGSPEDK [_GSLEK(Succinyl)GSPEDK_]
collision cross section [6]: 366.43 ± 0.51 Å²

LEQVEKELLR [_LEQVEK(Methyl (K))ELLR_]
collision cross section [9]: 386.67 ± 0.96 Å²
collision cross section [10]: 448.53 ± 4.9 Å²

GSLGAQKLANTCFNEIEK [_GSLGAQK(hydroxyisobutyryl)LANTCFNEIEK_]
collision cross section (charge state: 2, modification: hydroxyisobutyryl): 476.97 ± 0.8 Å²

AAQASDLEKIHLDEK [_AAQASDLEK(Trimethyl (K))IHLDEK_]
collision cross section [11]: 457.14 Å²
collision cross section [12]: 500.66 ± 1.6 Å²

VFSIISSEKELK [_VFSIISSEK(Methyl (K))ELK_]
collision cross section [9]: 411.54 ± 0.9 Å²
collision cross section [10]: 489.57 ± 1.9 Å²

GAEKTEVAEPR [_GAEK(GlyGly (K))TEVAEPR_]
collision cross section [13]: 384.75 ± 0.88 Å²
collision cross section [14]: 448.79 ± 1.6 Å²

LQAAYAGDKADDIQK [_LQAAYAGDK(Gluratylation)ADDIQK_]
collision cross section (charge state: 2, modification: Glutarylation): 440.38 ± 0.95 Å²
collision cross section (charge state: 3, modification: Glutarylation): 496.91 ± 1 Å²

KYEEIDNAPEER [_K(Trimethyl (K))YEEIDNAPEER_]
collision cross section [11]: 405.59 ± 0.61 Å²
collision cross section [12]: 490.14 ± 2.4 Å²

DLSTVEALQNLKNLK [_DLSTVEALQNLK(Succinyl)NLK_]
collision cross section [6]: 483.86 ± 0.78 Å²
collision cross section [7]: 537.21 Å²

VTLEVGKVIQQGR [_VTLEVGK(Biotin)VIQQGR_]
collision cross section (charge state: 2, modification: Biotin): 422.26 Å²
collision cross section (charge state: 3, modification: Biotin): 501.27 Å²

AEGYEVAHGGR [_AEGY(Nitro (Y))EVAHGGR_]
collision cross section [15]: 365.03 ± 0.17 Å²
collision cross section (charge state: 3, modification: Nitro (Y)): 442.95 ± 1.1 Å²

LQLEIDQKK [_LQLEIDQK(Malonyl)K_]
collision cross section [1]: 367.76 ± 0.011 Å²

SITHSTVGSKGEK [_SITHSTVGSK(Trimethyl (K))GEK_]
collision cross section [11]: 408.54 ± 2.1 Å²
collision cross section [12]: 473.59 ± 1.5 Å²

VGTASVLQPVKK [_VGTASVLQPVK(GlyGly (K))K_]
collision cross section [13]: 404.53 ± 0.36 Å²
collision cross section [14]: 466.32 ± 0.78 Å²

AGPNASIISLKSDK [_AGPNASIISLK(GlyGly (K))SDK_]
collision cross section [13]: 420.97 ± 0.85 Å²
collision cross section [14]: 488.88 ± 2 Å²

PRTPTAPAVNLAGAR [_PR(Methyl (R))TPTAPAVNLAGAR_]
collision cross section (charge state: 3, modification: Methyl (R)): 486.43 ± 2.3 Å²

FDDTNPEKEEAK [_FDDTNPEK(Methyl (K))EEAK_]
collision cross section [9]: 400.43 ± 1.8 Å²
collision cross section [10]: 498.56 ± 1.5 Å²

GGGDRGGFGPGK [_GGGDR(Citrullination (R))GGFGPGK_]
collision cross section (charge state: 2, modification: Citrullination (R)): 334.18 ± 0.75 Å²

PATSYVR [_PATSY(Nitro (Y))VR_]
collision cross section [15]: 318.95 ± 2.2 Å²
